Results as given in paper PMC11427689, “Antagonistic nanobodies implicate mechanism of GSDMD pore formation and potential therapeutic application” (Nature Communications, 2024).

Target: T1, GSDMD^NT (N-terminal domain of gasdermin D released by caspase cleavage) (Homo sapiens (endogenous, THP-1), UniProt P57764)
T1 construct: also called processed GSDMD^NT; source: endogenous, lysate of PMA-differentiated THP-1 macrophages stimulated with MxiH
Test: non-reducing SDS-PAGE and immunoblot; PMA-differentiated THP-1 macrophages expressing HA-tagged nanobodies, stimulated with MxiH for 1 h; lysates in SDS-PAGE buffer without reducing agent; immunoblot with anti-GSDMD
Settings: partners not purified

T1 sequence (P57764 whole entry, looked up, the tested form may be a part): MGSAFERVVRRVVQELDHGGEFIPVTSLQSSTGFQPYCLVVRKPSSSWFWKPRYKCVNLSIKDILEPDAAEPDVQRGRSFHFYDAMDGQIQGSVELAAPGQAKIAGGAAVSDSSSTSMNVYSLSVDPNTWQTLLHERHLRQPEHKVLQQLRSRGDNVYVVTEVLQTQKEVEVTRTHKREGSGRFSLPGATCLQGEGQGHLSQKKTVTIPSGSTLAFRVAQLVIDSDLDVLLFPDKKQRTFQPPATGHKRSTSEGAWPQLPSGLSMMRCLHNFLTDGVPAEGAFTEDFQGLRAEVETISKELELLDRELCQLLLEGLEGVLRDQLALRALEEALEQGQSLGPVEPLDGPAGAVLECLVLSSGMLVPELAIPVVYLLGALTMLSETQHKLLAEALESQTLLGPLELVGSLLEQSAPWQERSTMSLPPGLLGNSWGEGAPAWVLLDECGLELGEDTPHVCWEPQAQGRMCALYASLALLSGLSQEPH

Binder | binding result
VHH_(GSDMD-2) with a C-terminal HA tag, expressed in THP-1 cells (VHH, Same nanobody as m3 and m12, other vector and host; also called VHH_(GSDMD-2)-HA; source: THP-1, lentiviral transduction, constitutive expression (pEF1α), in lysate; not shown: HA, C-terminal, kept) VHH: QVQLVESGGGLVQPGGSLRLSCVDSRSWINVYGANWYRQAPGKERELVAALTSGGTTNYADSVKGRFTISRDNAKNTVYLQMRDLKPEDTAVYYCNLERYTGSSVYPWGQGTQVTVSS | binds
VHH_(GSDMD-1) with a C-terminal HA tag, expressed in THP-1 cells (VHH, Same nanobody as m2 and m11, other vector and host; also called VHH_(GSDMD-1)-HA; source: THP-1, lentiviral transduction, constitutive expression (pEF1α), in lysate; not shown: HA, C-terminal, kept) VHH: QVQLVESGGALVQPGGSLRLSCSASGFTFSKYLMSWYRQAPGKERELVATITTAGGNTNYADSVKGRFTISRDNAKNTVYLQMNSLKPEDTAVYYCKASGGTIRTVNETYWGQGTQVTVSS | binds

Target: T2, His-SUMO-GSDMD (Homo sapiens, UniProt P57764)
T2 construct: human gasdermin D (GSDMD), expressed from pET28 as His-SUMO-GSDMD; the recombinant protein is called full-length in the results; it was cleavable with the SUMO protease ULP1; also called gasdermin D; source: E. coli LOBSTR, purified (Ni-NTA, gel filtration); not shown: SUMO, N-terminal, kept
Test: ELISA; SUMO-GSDMD or SUMO in PBS immobilised on ELISA plates at 1 μg/mL overnight; HA-tagged nanobodies in 10% FBS/PBS, 10-fold dilution series from 100 nM to 1 pM; detected with anti-HA HRP and TMB
Settings: both partners purified

T2 sequence (P57764 whole entry): as the sequence (P57764 whole entry, looked up, the tested form may be a part) above

Binder | binding result
VHH_(GSDMD-6) with C-terminal HA-His6 (VHH, pHEN6-based periplasmic expression vector, small scale (HA-His6); also called HA-His-tagged nanobody; source: E. coli WK6, periplasmic extract, purified (Ni-NTA, desalting); not shown: HA, C-terminal, kept; His6, C-terminal, kept) VHH: QVQLVETGGGLVQPGGSLRLSCTASGFIFSANQMNWVRQAPGKGLEWLSGISTRGDTTSYADSVKGRFTISRDNAKNTLYLQMNSLQPDDTAVYFCARVCIRGPEPKLRCDDWGQGTQVTVSS | binds
VHH_(GSDMD-2) with C-terminal HA-His6 (VHH, pHEN6-based periplasmic expression vector, small scale (HA-His6); also called HA-His-tagged nanobody; source: E. coli WK6, periplasmic extract, purified (Ni-NTA, desalting); not shown: HA, C-terminal, kept; His6, C-terminal, kept) VHH: QVQLVESGGGLVQPGGSLRLSCVDSRSWINVYGANWYRQAPGKERELVAALTSGGTTNYADSVKGRFTISRDNAKNTVYLQMRDLKPEDTAVYYCNLERYTGSSVYPWGQGTQVTVSS | binds
VHH_(GSDMD-4) with C-terminal HA-His6 (VHH, pHEN6-based periplasmic expression vector, small scale (HA-His6); also called HA-His-tagged nanobody; source: E. coli WK6, periplasmic extract, purified (Ni-NTA, desalting); not shown: HA, C-terminal, kept; His6, C-terminal, kept) VHH: QVQLVESGGGLVQPGGSLRLSCAASGFTLDRHAIAWFRQAPGLEREGVVCTSSSGAITNTADSVKGRFTISRDDAKNTVYLQMNSLKPEDTAIYYCAVRELWTVQPICEPRPRAYAYWGQGTQVTVSS | binds
VHH_(GSDMD-3) with C-terminal HA-His6 (VHH, pHEN6-based periplasmic expression vector, small scale (HA-His6); also called HA-His-tagged nanobody; source: E. coli WK6, periplasmic extract, purified (Ni-NTA, desalting); not shown: HA, C-terminal, kept; His6, C-terminal, kept) VHH: QVQLVETGGGLVQPGGSLRLSCAASGFTLDIYNMGWFRQAPGKEREGVSCISSRYGTSTYYADSVKGRFTISRDNAKNTVYLQMNNLKPEDTAVYYCATVSWRFTTNQDVCLTPSVSGYWGQGTQVTVSS | binds
VHH_(GSDMD-1) with C-terminal HA-His6 (VHH, pHEN6-based periplasmic expression vector, small scale (HA-His6); also called HA-His-tagged nanobody; source: E. coli WK6, periplasmic extract, purified (Ni-NTA, desalting); not shown: HA, C-terminal, kept; His6, C-terminal, kept) VHH: QVQLVESGGALVQPGGSLRLSCSASGFTFSKYLMSWYRQAPGKERELVATITTAGGNTNYADSVKGRFTISRDNAKNTVYLQMNSLKPEDTAVYYCKASGGTIRTVNETYWGQGTQVTVSS | binds
VHH_(GSDMD-5) with C-terminal HA-His6 (VHH, pHEN6-based periplasmic expression vector, small scale (HA-His6); also called HA-His-tagged nanobody; source: E. coli WK6, periplasmic extract, purified (Ni-NTA, desalting); not shown: HA, C-terminal, kept; His6, C-terminal, kept) VHH: QVQLVETGGGLVQPGGSLRLSCAASGFVFSINPMNWYRQAPGKERELVAYISMRGSTTNYADSVKGRFIISRDNAKNTLYLQMNSLKPEDTAVYYCNAPSRSVWGQGTQVTVSS | binds

Target: T3, human GSDMD-Renilla luciferase fusion (Homo sapiens, UniProt P57764)
T3 construct: human gasdermin D (GSDMD) fused to Renilla luciferase; A GSDMD 4 A fusion was tested as well; also called Renilla-fused bait protein human GSDMD; source: HEK293T, transfected (pcDNA3.1-based vector), in lysate
Test: co-IP; LUMIER assay: HEK293T co-transfected with VHH-HA and Renilla luciferase fusions; lysis in 50 mM Hepes-KOH pH 7.9, 150 mM NaCl, 2 mM EDTA, 0.5% Triton X-100, 5% glycerol; VHH-HA captured on anti-HA-coated plates for one hour; luminescence of co-purified Renilla luciferase normalised to lysate
Settings: partners not purified

T3 sequence (P57764 whole entry, the tested form may be a part): as the sequence (P57764 whole entry, looked up, the tested form may be a part) above

Binder | binding result
VHH_(GSDMD-2)-HA (VHH, also called VHH-HA; source: HEK293T, transfected (pCAGGS VHH-HA), in lysate; not shown: HA, C-terminal, kept) VHH: QVQLVESGGGLVQPGGSLRLSCVDSRSWINVYGANWYRQAPGKERELVAALTSGGTTNYADSVKGRFTISRDNAKNTVYLQMRDLKPEDTAVYYCNLERYTGSSVYPWGQGTQVTVSS | binds
VHH_(GSDMD-3)-HA (VHH, also called VHH-HA; source: HEK293T, transfected (pCAGGS VHH-HA), in lysate; not shown: HA, C-terminal, kept) VHH: QVQLVETGGGLVQPGGSLRLSCAASGFTLDIYNMGWFRQAPGKEREGVSCISSRYGTSTYYADSVKGRFTISRDNAKNTVYLQMNNLKPEDTAVYYCATVSWRFTTNQDVCLTPSVSGYWGQGTQVTVSS | binds
VHH_(GSDMD-1)-HA (VHH, also called VHH-HA; source: HEK293T, transfected (pCAGGS VHH-HA), in lysate; not shown: HA, C-terminal, kept) VHH: QVQLVESGGALVQPGGSLRLSCSASGFTFSKYLMSWYRQAPGKERELVATITTAGGNTNYADSVKGRFTISRDNAKNTVYLQMNSLKPEDTAVYYCKASGGTIRTVNETYWGQGTQVTVSS | binds
VHH_(GSDMD-5)-HA (VHH, also called VHH-HA; source: HEK293T, transfected (pCAGGS VHH-HA), in lysate; not shown: HA, C-terminal, kept) VHH: QVQLVETGGGLVQPGGSLRLSCAASGFVFSINPMNWYRQAPGKERELVAYISMRGSTTNYADSVKGRFIISRDNAKNTLYLQMNSLKPEDTAVYYCNAPSRSVWGQGTQVTVSS | binds
